Test results published in the nanobody polyreactivity screen of Harvey et al. (2022).

assay: yeast display, Sf9 membrane polyspecificity reagent, FACS + sequencing; frameworks hold sequencing errors
Summary of the method: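 Using colony PCR, genes from sorted yeast display clones were amplified, then sequenced on MiSeq at 2 × 250 and filtered by CDR length. The clones had been stained with 10% biotinylated, detergent-solubilized Sf9 membrane reagent for 1 hour at 4 °C and sorted by FACS into low and high (top ~1%) gates on anti-HA and streptavidin fluorescence. Polyreactivity labels come from the gate of origin.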

Row | Sequence | polyreactivity (PSR sort gate)
1 | QDQLVESGGGLVQAGGSLRLSCAASGRIIQYYDMGWYRQAPGKERELVAAITSNGGRTYYADSVKGRFTISRDNAKNTVFLLMNILKPEDTAVYYCAKTFDFSAYPPLTLKYGYWGQGTQVTVSS | high polyreactivity
2 | QDQLVESGGGLVQAGGSLRLSCAASGRILGSNTMGWDRQAPGKERELVAAITSAGNTNYADSVKGRFTISRDNAKNTVYLQMNSLKPEDTAVYYCNVRGQRLYYRVRRLYDYWGQGTQVTVSS | high polyreactivity
3 | QDQLVESGGGLVQAGGSLRLSCAASGRILINNAMVWYRQAPGKERELVARITRGGRTNYADSVNGRFTISRDNPKNTDYFQMYCPKPVDTAVYDCNAEYVTPYYYGFGAKRDYWGQGTQVTVSS | low polyreactivity
4 | QDQLVESGGGLVQAGGSLRLSCAASGRINAMGWYRQAPGKERELVAVITLRGGSTYYADSVKGRFTISRDNAKNTVYLQMNSLKPEDTAVYYCAAETLVSFWFDYWGQGTQVTVSS | low polyreactivity
5 | QDQLVESGGGLVQAGGSLRLSCAASGRNFELYAMGWYRPAPRKERELVATISGSGGSTYYADSVKGRFTISRDNAKNTVYLQMNSLKPEDTAVFYCAKNAYGYYYSRSDDWGQGTQVTVSS | low polyreactivity
6 | QDQLVESGGGLVQAGGSLRLSCAASGRNFGYYTRGWYRQAPGKERELVATINWSGGNTYYADSVKGRFTISRDNAKNTVYLQMTCLKPEDTAVYYCATRSRAPQQVYYQNYDYWGQGTQVTVSS | high polyreactivity
7 | QDQLVESGGGLVQAGGSLRLSCAASGRNFSFNPMGLYRQAPGKERELVATIRTDGTTNYADSVKGRFTISRDNAKNTVYVQMNSLKPEDTAVYYCAADSAYHRRRMYYWGQGTQVTVSS | high polyreactivity
8 | QDQLVESGGGLVQAGGSLRLSCAASGRTFFWNAMGWYRPAPGKERELVAAITWSGGSTYYADSVKGRFTISRDNAKNTVYLQMNSLKPEDPAVYYCAAVVTDYVWRSEYWGQGTQVTVSS | low polyreactivity
9 | QDQLVESGGGLVQAGGSLRLSCAASGRTFHLYAMGWYRPAPGKERELVAAIRWTGVSTYYADSVKGRFTISRDNAKNTVYLEMNSLKPEDTAVYYCATKQRYRVSRDWSSYCYGYWGQGTQVTVSS | high polyreactivity
10 | QDQLVESGGGLVQAGGSLRLSCAASGRTFKTYAMGWYRQAPGKERELVAAISYSSGRTYYADSVKGRFTISRDNAKNTVYLQMNSLKPEDTAVYYCASLGSGVPRYYYWGQGTQVTVSS | high polyreactivity
11 | QDQLVESGGGLVQAGGSLRLSCAASGRTFPWYAMGWYRPAPGKERELVAAISTGGSRTYYADSVKGRFTISRDNAKNTVYLQMNSLKPEDTAVYYCNARNTLRDYPYGYWGQGTQVTVSS | high polyreactivity
12 | QDQLVESGGGLVQAGGSLRLSCAASGRTFRYNAMGWYRQAPGKERELVAAISGRGSSTYYADSVKGRFTISRDNAKNTVYLQMNSLKPEETAVYYCAALPASVRRPGWHDYWGQGTQVTVSS | high polyreactivity
13 | QDQLVESGGGLVQAGGSLRLSCAASGRTFTYYAMGWYRQAPGKDRELDAGISSGGGSTYYADSVKGRFTISRDHAKNTVYLQMNSLKPEDTAVYYCATAKRQGGYSEYDYWGQGTQVTVSS | high polyreactivity
14 | QDQLVESGGGLVQAGGSLRLSCAASGRTFYKYAMGWYRQAPGKERELVAAIRTGGGTSYADSVKGRFTISRDNAKNTVYLQMNSLKPEDTAVYYCNARGVYFWWRLDYWGQGTQVTVSS | low polyreactivity
15 | QDQLVESGGGLVQAGGSLRLSCAASGRTIYQNAMGWYRQAPGKERELVAAISRSGGSTYYADSVKGRFTISRDNAKNTVYLQMNSLKPEDTAVYYCAADPRSYGGGYDYWGQGPQVTVSS | high polyreactivity
16 | QDQLVESGGGLVQAGGSLRLSCAASGSIFFARYSMGWYTQAPGKERELVAAITRATSTTYADSVKGRFTISRDNAKNTVYLQMKSLKPEDTAVYYCNADPAYQFDYWGQGTQVTVSS | high polyreactivity
17 | QDQLVESGGGLVQAGGSLRLSCAASGSIFFLYAMGWYRQAPGKERELVAAIRLSGGSTYYADSVKGRFTISRDNAKNTVYLQMNSLKPEDTAVYYCAAESAAASAVYSVEYDYWGQGTQVTVSS | low polyreactivity
18 | QDQLVESGGGLVQAGGSLRLSCAASGSIFGKYTMGWYRQAPGKERELVAAISRSGSSTYYADSVKGRFTISRDNAKNTVYLQMNSLKPEDTAVYYCAAKFYYGVTSKFESWGQGTQVTVSS | high polyreactivity
19 | QDQLVESGGGLVQAGGSLRLSCAASGSIFPRYDMGWYRQAPGKERELVAAITGSGSSTYYADSVKGRFSISRDNAMNTVYLQMNSLKPEDTAGYYCAARKSRPPFPPPFDYYWRQGTQVTVSS | low polyreactivity
20 | QDQLVESGGGLVQAGGSLRLSCAASGSIFPYNAMAWSRQAPGTERELVAGITYNGGSTYYADSVKGRFTISRDNAKNTVYLQMNSLKREDTAVYYCAAAGRRAFYRYDHWGQGTQVTVSS | high polyreactivity
21 | QDQLVESGGGLVQAGGSLRLSCAASGSIFRAYAMGRYRQPPGKERELVAAIIWTDGSTYYADSVKGRFTISRDNAKNTVYLQMNSLKPEDTAVYYCAKDSIARHNYWGQGTQVTLSS | low polyreactivity
22 | QDQLVESGGGLVQAGGSLRLSCAASGSIFRYYDMGWSRQAPGKERELVAAISDSTGTTYYADSVKGRFTISRDNAKNTVYLQMNSLKPEDTAVYYCNTAYNRYWRPFNSLYYWGQGTQVTVSS | high polyreactivity

Row | Sequence | polyreactivity (PSR sort gate)
23 | QDQLVESGGGLVQAGGSLRLSCAASGSIFSTNAMGWYRQAPGKERELVAAITYSGSRTYYADSVKGRFTISRDTAKNTVFLQMNSLKPEDTAVYYCAADTSWYSWWFDYWGQGTQVTVSS | low polyreactivity
24 | QDQLVESGGGLVQAGGSLRLSCAASGSIFSYYAMGWYRHAPAKDRELVAAITGVGGTNYADSVKGRFTISRDNAKNTVYLQMNSLKPEDTAVYYCAARQYWRRYQYYYWGQGTQVTVSS | high polyreactivity
25 | QDQLVESGGGLVQAGGSLRLSCAASGSIFTDNVMGWYRQATGKERELVAAITSTGGNTYYADSVKGRFTISRDNAKNTVYLQMNSLKREDTAVYYSNKDVARYPYGKFDYWGQGTQVTVSS | low polyreactivity
26 | QDQLVESGGGLVQAGGSLRLSCAASGSIFVHYVMGWYRQAPGKERELVAAISSRGGGTFYADSVKGRFTISRDNAKNTVYLQMNSLKPEDTAVSYCARVPYFGSGAIRDYWGQGTQVTVSS | high polyreactivity
27 | QDQLVESGGGLVQAGGSLRLSCAASGSIFWGYDMGWYRQAPGKEMELVARISYSGGSTSYADSVKGRFTISRDNAKNTVYLQMNSLKPEDTAVYYCAADEGGFWWTYPYDSWGQGTQVTVSS | low polyreactivity
28 | QDQLVESGGGLVQAGGSLRLSCAASGSIFYVNTMGWYRQAHGKERELVADISSGDSTYYADSVKGRFTISRDNAKNTVYLQMNSLKPEDTAVYYCIADVYSWVSGKEGDYWGQGTQVTVSS | low polyreactivity
29 | QDQLVESGGGLVQAGGSLRLSCAASGSIIPFYAMGWYRQAPGKERELVAAITYSGGSTFYADSVKGRFTISRDNAKNTVYLQMNSLKPEDTAVYYCNAVWRFGSSKYYYWGQGTQVTVSS | high polyreactivity
30 | QDQLVESGGGLVQAGGSLRLSCAASGSIIVRNAMGWYRQAPGKERELVAAISRSGSSTYYADSVKGRFTISRDNAKITVFCQMNSLKPEDTAVYYCAKRRPALRWIYYYWGQGTQVTVSS | high polyreactivity
31 | QDQLVESGGGLVQAGGSLRLSCAASGSIIYAYAMGWYRQAPGKERELVAAISWTGGSTYYADSVKGRFTISRDNAKNTVYLQMNCLKPEDTAVYYCAATYYQVASFYVTRYDYWGQGTQVTVSS | low polyreactivity
32 | QDQLVESGGGLVQAGGSLRLSCAASGSNFRFNAMGWDTQAPGKEREFDAANSRSGGRTYYADSVKGRFRISRDNAKNTVYFQMNCLKPEDTAVFYCNAVWRFPIGRSAPRYDYWGQGTQVTVSS | high polyreactivity
33 | QDQLVESGGGLVQAGGSLRLSCAASGSTDYTYDMGWYRQAPGKERELVASITSGGSTNYADSVKGRFTISRDNAKNTVYFQMNSVKPQDTAVYYCAVGTYTIYSGTLYDYKYYWGQGTQVTVSS | low polyreactivity
34 | QDQLVESGGGLVQAGGSLRLSCAASGSTFGYARGWYRQAPGKERELVAAITSTGGSTYYADSVKGRFTISRDNAKNTVYLQMNSLKPEDTAVYYCAAQVGRVYVVYPVYKYGYWGQGTQVTVSS | high polyreactivity
35 | QDQLVESGGGLVQAGGSLRLSCAASGSTFPLYAMGSYREAPGKERELVADITVSGGSTYYADSVKGRFTISRDNAKNTVYLQMNSLNPEDTAVYYCNADDRSPFPDYWWYPYDYDYGGQGTQVTVSS | low polyreactivity
36 | QDQLVESGGGLVQAGGSLRLSCAASGSTFPPYAMGWNRQAPGKERELVDTSTRIGGSTYYADSVKGRFTISRDNAKKTVYLQKNSLKPEDTALYYCTARRYQSYRYYYWGQGTQVTVSS | high polyreactivity
37 | QDQLVESGGGLVQAGGSLRLSCAASGSTFSRNAMGWYRQAPGKERELVAAISWRGGRTYYADSVKGRFTISRDNAKNTVYLQMNSLKPEDTAVYYCAAEHKYRYDYWGQGTQVTVSS | low polyreactivity
38 | QDQLVESGGGLVQAGGSLRLSCAASGSTFTYYAMGWYRQAPGKERELVAAIRNSDGTTYYADSVKGRFTLSRDTAKFTVYLQMNSLKPEDTAVYYCAAGPRGRWSTYDYWGQGTQVNVSS | low polyreactivity
39 | QDQLVESGGGLVQAGGSLRLSCAASGSTFYIYAMGWYRQAPGQERELVARISGSRGSTYYADSVKGRFTISRDNAKNTVYLQMNSLKPEDTAVYYCAADDIYNYYQYYAFPYYRYDYWGQGTQVTVSS | low polyreactivity
40 | QDQLVESGGGLVQAGGSLRLSCAASGSTLRGYAMGWYRQAPGKEREFVASITSSGSRTYADSVKGRFTISRDNAKNTVYLQMNSLKPEDTAVYYCAANRWPLKGYTSRYWGYWYNYWGQGTQVTVSS | high polyreactivity
41 | QDQLVESGGGLVQAGGSLRLSCAASGTIFRGYTMGWYRQAPGKERELVAAISSSGGRTHYADSVKGRFTISRDNAKNTVYLQMNSLKPEDSAVYYCAADYYRTPKSGSSGLDYWGQGTQVTLSS | low polyreactivity
42 | QDQLVESGGGLVQAGGSLRLSCAASGYIFRYYAMGWYRQAPGKERELVAAISWNGGRTYYADSVKGRFTISRDNAKNTVYLQMNSLKPEDTAVYYCNTYWDGAREYDYWGQGTQVTVSS | high polyreactivity
43 | QDQLVESGGGLVQAGGSLRLSCAASGYIFSTYAMGWYRQAPGKERELVAAISSSGGSTYYADSVKGRFTISRDNAKNTVFLQMNSLKPEDTAVYYCYAGKHVRQRYDHWGQGTQVSVSS | high polyreactivity
